Assay results: PMC4143292, “An Enzymatic Platform for the Synthesis of Isoprenoid Precursors” (PLoS ONE, 2014)

System: C=C(OP(=O)(O)O)C(=O)O
Assay: purified protein
Conditions: Hepes pH 8.0, 25 C, apparent

Chain of PK (pyruvate kinase) (Oryctolagus cuniculus) (chain, as listed by the source): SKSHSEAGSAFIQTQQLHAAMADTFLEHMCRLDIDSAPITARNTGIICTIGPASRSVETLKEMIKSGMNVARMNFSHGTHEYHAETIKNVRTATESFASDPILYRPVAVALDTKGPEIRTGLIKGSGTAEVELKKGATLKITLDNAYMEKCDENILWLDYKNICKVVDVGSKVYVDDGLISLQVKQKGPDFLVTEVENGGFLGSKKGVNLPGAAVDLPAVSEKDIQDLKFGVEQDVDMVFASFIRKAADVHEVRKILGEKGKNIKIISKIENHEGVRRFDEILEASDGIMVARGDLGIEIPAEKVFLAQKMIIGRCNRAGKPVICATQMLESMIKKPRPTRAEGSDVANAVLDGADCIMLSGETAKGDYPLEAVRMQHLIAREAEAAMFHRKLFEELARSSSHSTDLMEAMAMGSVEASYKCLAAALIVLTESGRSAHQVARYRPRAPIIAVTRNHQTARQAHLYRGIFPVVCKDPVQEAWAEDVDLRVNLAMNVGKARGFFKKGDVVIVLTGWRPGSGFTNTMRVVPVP

For “PK (pyruvate kinase) (Oryctolagus cuniculus)”, the Km was 0.040 mM and the kcat was 160 s⁻¹.
